Measurements: patent publication US20150045540A1 (published 2015)

B1: HC 9/SLC 7 (antibody)
chain 1: GQGTLVTVSSASTKGPSVFQPVLHQPPAMSSALGTTIRLTCTLRNDHDIGVYSVYWYQQRPGHPPRFLLRYFSQSDKSQGPQVPPRFSGSKDVARNRGYLSISELQPEDEAMYYCAMGARSRCWPRGFQSKHNSVTHVFGSGTQLTVLSQPKATPSVTLFPPSSEELQANKATLVCLMNDFYPGILTVTWKADGTPITQGVEMTTPSKQSNNKYAASSYLSLTPEQWRSRRSYSCQVMHEGSTVEKTVAPAECS
chain 2: MSWAPVLLMLFVYCTGCGPQPVLHQPPAMSSALGTTIRLTCTLRNDHDIGVYSVYWYQQRPGHPPRFLLRYFSQSDKSQGPQVPPRFSGSKDVARNRGYLSISVTHVFGSGTQLTVLSQPKATPQVQLVQ
B2: HC 2/SLC 7 (antibody)
chain 1: GQGTLVTVSSASQPVLHQPPAMSSALGTTIRLTCTLRNDHDIGVYSVYWYQQRPGHPPRFLLRYFSQSDKSQGPQVPPRFSGSKDVARNRGYLSISELQPEDEAMYYCAMGARSRCWPRGFQSKHNSVTHVFGSGTQLTVLSQPKATPSVTLFPPSSEELQANKATLVCLMNDFYPGILTVTWKADGTPITQGVEMTTPSKQSNNKYAASSYLSLTPEQWRSRRSYSCQVMHEGSTVEKTVAPAECS
chain 2: B1 chain 2
B3: HC 9/SLC 8 (antibody)
chain 1: B1 chain 1
chain 2: MSWAPVLLMLFVYCTGCGPQPVLHQPPAMSSALGTTIRLTCTLRNDHDIGVYSVYWYQQRPGHPPRFLLRYFSQSDKSQGPQVPPRFSGSKDVARNRGYLSISVTHVFGSGTQLTVLSQPKATPSQVQLVQ
B4: HC 10/SLC 7 (antibody)
chain 1: GQGTLVTVSSASTKGPSVFPQPVLHQPPAMSSALGTTIRLTCTLRNDHDIGVYSVYWYQQRPGHPPRFLLRYFSQSDKSQGPQVPPRFSGSKDVARNRGYLSISELQPEDEAMYYCAMGARSRCWPRGFQSKHNSVTHVFGSGTQLTVLSQPKATPSVTLFPPSSEELQANKATLVCLMNDFYPGILTVTWKADGTPITQGVEMTTPSKQSNNKYAASSYLSLTPEQWRSRRSYSCQVMHEGSTVEKTVAPAECS
chain 2: B1 chain 2
B5: HC 8/SLC 2 (antibody)
chain 1: GQGTLVTVSSASTKGPSVQPVLHQPPAMSSALGTTIRLTCTLRNDHDIGVYSVYWYQQRPGHPPRFLLRYFSQSDKSQGPQVPPRFSGSKDVARNRGYLSISELQPEDEAMYYCAMGARSRCWPRGFQSKHNSVTHVFGSGTQLTVLSQPKATPSVTLFPPSSEELQANKATLVCLMNDFYPGILTVTWKADGTPITQGVEMTTPSKQSNNKYAASSYLSLTPEQWRSRRSYSCQVMHEGSTVEKTVAPAECS
chain 2: MSWAPVLLMLFVYCTGCGPQPVLHQPPAMSSALGTTIRLTCTLRNDHDIGVYSVYWYQQRPGHPPRFLLRYFSQSDKSQGPQVPPRFSGSKDVARNRGYLSISVTHVFGSGTQLTVLSQQVQLVQ
B6: HC 8/SLC 9 (antibody)
chain 1: B5 chain 1
chain 2: MSWAPVLLMLFVYCTGCGPQPVLHQPPAMSSALGTTIRLTCTLRNDHDIGVYSVYWYQQRPGHPPRFLLRYFSQSDKSQGPQVPPRFSGSKDVARNRGYLSISVTHVFGSGTQLTVLSQPKATPSVQVQLVQ
B7: HC 8/SLC 8 (antibody)
chain 1: B5 chain 1
chain 2: B3 chain 2
B8: HC 8/SLC 4 (antibody)
chain 1: B5 chain 1
chain 2: MSWAPVLLMLFVYCTGCGPQPVLHQPPAMSSALGTTIRLTCTLRNDHDIGVYSVYWYQQRPGHPPRFLLRYFSQSDKSQGPQVPPRFSGSKDVARNRGYLSISVTHVFGSGTQLTVLSQPKQVQLVQ
B9: HC 6/SLC 5 (antibody)
chain 1: GQGTLVTVSSASTKGPQPVLHQPPAMSSALGTTIRLTCTLRNDHDIGVYSVYWYQQRPGHPPRFLLRYFSQSDKSQGPQVPPRFSGSKDVARNRGYLSISELQPEDEAMYYCAMGARSRCWPRGFQSKHNSVTHVFGSGTQLTVLSQPKATPSVTLFPPSSEELQANKATLVCLMNDFYPGILTVTWKADGTPITQGVEMTTPSKQSNNKYAASSYLSLTPEQWRSRRSYSCQVMHEGSTVEKTVAPAECS
chain 2: MSWAPVLLMLFVYCTGCGPQPVLHQPPAMSSALGTTIRLTCTLRNDHDIGVYSVYWYQQRPGHPPRFLLRYFSQSDKSQGPQVPPRFSGSKDVARNRGYLSISVTHVFGSGTQLTVLSQPKAQVQLVQ
B10: HC 3/SLC 6 (antibody)
chain 1: GQGTLVTVSSASTQPVLHQPPAMSSALGTTIRLTCTLRNDHDIGVYSVYWYQQRPGHPPRFLLRYFSQSDKSQGPQVPPRFSGSKDVARNRGYLSISELQPEDEAMYYCAMGARSRCWPRGFQSKHNSVTHVFGSGTQLTVLSQPKATPSVTLFPPSSEELQANKATLVCLMNDFYPGILTVTWKADGTPITQGVEMTTPSKQSNNKYAASSYLSLTPEQWRSRRSYSCQVMHEGSTVEKTVAPAECS
chain 2: MSWAPVLLMLFVYCTGCGPQPVLHQPPAMSSALGTTIRLTCTLRNDHDIGVYSVYWYQQRPGHPPRFLLRYFSQSDKSQGPQVPPRFSGSKDVARNRGYLSISVTHVFGSGTQLTVLSQPKATQVQLVQ
B11: HC 4/SLC 6 (antibody)
chain 1: GQGTLVTVSSASTKQPVLHQPPAMSSALGTTIRLTCTLRNDHDIGVYSVYWYQQRPGHPPRFLLRYFSQSDKSQGPQVPPRFSGSKDVARNRGYLSISELQPEDEAMYYCAMGARSRCWPRGFQSKHNSVTHVFGSGTQLTVLSQPKATPSVTLFPPSSEELQANKATLVCLMNDFYPGILTVTWKADGTPITQGVEMTTPSKQSNNKYAASSYLSLTPEQWRSRRSYSCQVMHEGSTVEKTVAPAECS
chain 2: B10 chain 2
B12: HC 3/SLC 15 (antibody)
chain 1: B10 chain 1
chain 2: MSWAPVLLMLFVYCTGCGPQPVLHQPPAMSSALGTTIRLTCTLRNDHDIGVYSVYWYQQRPGHPPRFLLRYFSQSDKSQGPQVPPRFSGSKDVARNRGYLSISVTHVFGSGTQLTVLSQPKATPSVTGGGGSQVQLVQ
B13: HC 3/SLC 9 (antibody)
chain 1: B10 chain 1
chain 2: B6 chain 2
B14: HC 7/SLC 6 (antibody)
chain 1: GQGTLVTVSSASTKGPSQPVLHQPPAMSSALGTTIRLTCTLRNDHDIGVYSVYWYQQRPGHPPRFLLRYFSQSDKSQGPQVPPRFSGSKDVARNRGYLSISELQPEDEAMYYCAMGARSRCWPRGFQSKHNSVTHVFGSGTQLTVLSQPKATPSVTLFPPSSEELQANKATLVCLMNDFYPGILTVTWKADGTPITQGVEMTTPSKQSNNKYAASSYLSLTPEQWRSRRSYSCQVMHEGSTVEKTVAPAECS
chain 2: B10 chain 2

Target: T1, Placenta Growth Factor (PlGF), human (human, UniProt P49763 21-149)
T1 chain: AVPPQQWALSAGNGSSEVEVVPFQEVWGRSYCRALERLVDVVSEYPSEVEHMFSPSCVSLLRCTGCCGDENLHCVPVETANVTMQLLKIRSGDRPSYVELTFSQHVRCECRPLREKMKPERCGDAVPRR
Experiment: ELISA
An EC50 of 0.063 nM was found for B1 in this work.
An EC50 of 0.148 nM was found for B2 in this work.
An EC50 of 0.063 nM was found for B3 in this work.
An EC50 of 0.056 nM was found for B4 in this work.
An EC50 of 0.227 nM was found for B5 in this work.
An EC50 of 0.045 nM was found for B6 in this work.
An EC50 of 0.069 nM was found for B7 in this work.
An EC50 of 0.281 nM was found for B8 in this work.
An EC50 of 0.251 nM was found for B9 in this work.
An EC50 of 0.163 nM was found for B10 in this work.
An EC50 of 0.208 nM was found for B11 in this work.
An EC50 of 0.057 nM was found for B12 in this work.
An EC50 of 0.13 nM was found for B13 in this work.
An EC50 of 0.153 nM was found for B14 in this work.

These binders were tested against Hepatocyte Growth Factor (HGF), human (human, UniProt P14210 32-728) (assay: ELISA).
Chain of Hepatocyte Growth Factor (HGF), human (P14210 32-728): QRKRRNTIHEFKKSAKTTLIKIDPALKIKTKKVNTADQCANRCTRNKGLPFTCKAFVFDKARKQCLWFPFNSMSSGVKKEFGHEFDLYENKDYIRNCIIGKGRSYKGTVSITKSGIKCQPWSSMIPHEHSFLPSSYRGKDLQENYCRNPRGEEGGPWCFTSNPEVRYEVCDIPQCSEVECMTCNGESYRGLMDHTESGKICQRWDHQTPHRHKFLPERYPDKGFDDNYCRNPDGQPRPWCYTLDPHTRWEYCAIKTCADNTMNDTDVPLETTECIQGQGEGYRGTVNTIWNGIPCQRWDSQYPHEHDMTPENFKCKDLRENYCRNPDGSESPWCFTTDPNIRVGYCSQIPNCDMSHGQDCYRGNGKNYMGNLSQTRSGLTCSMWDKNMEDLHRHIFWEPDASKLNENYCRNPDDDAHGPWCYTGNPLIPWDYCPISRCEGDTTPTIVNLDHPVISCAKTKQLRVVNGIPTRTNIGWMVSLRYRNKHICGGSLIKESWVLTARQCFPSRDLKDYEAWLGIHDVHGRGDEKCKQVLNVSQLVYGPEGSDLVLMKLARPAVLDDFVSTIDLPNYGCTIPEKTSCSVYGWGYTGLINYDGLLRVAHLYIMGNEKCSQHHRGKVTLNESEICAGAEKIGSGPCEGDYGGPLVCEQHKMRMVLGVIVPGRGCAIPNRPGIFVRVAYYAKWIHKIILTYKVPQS
An EC50 of 0.059 nM was found for B1 in this work.
An EC50 of 0.055 nM was found for B2 in this work.
An EC50 of 0.061 nM was found for B3 in this work.
An EC50 of 0.059 nM was found for B4 in this work.
An EC50 of 0.059 nM was found for B5 in this work.
An EC50 of 0.049 nM was found for B6 in this work.
An EC50 of 0.056 nM was found for B7 in this work.
An EC50 of 0.071 nM was found for B8 in this work.
An EC50 of 0.066 nM was found for B9 in this work.
An EC50 of 0.057 nM was found for B10 in this work.
An EC50 of 0.063 nM was found for B11 in this work.
An EC50 of ~0.041 nM was found for B12 in this work.
An EC50 of 0.049 nM was found for B13 in this work.
An EC50 of 0.062 nM was found for B14 in this work.
